Key:
[1] = biological target: T1, MSNW10, recombinant full length human MSLN (human, UniProt Q13421 296-598); assay: SPR, additional experiments
T1 construct: also called MSNW10.002; FL-MSLN

[2] = biological target: T2, MSNW11, recombinant soluble (shed) MSLN lacking the C-terminal 7 AAs (human, UniProt Q13421 296-591); assay: H838 cell binding with shed MSLN (MSNW11) added
T2 construct: domain: soluble MSLN lacking the C-terminal 7 AAs; also called MSNW11.002; soluble MSLN
Source text: Table 16 lists the immunization campaigns, antigens used, and number of clones returned at each stage of screening. Clones from which antibody sequences were successfully recovered were first screened for binding to recombinant full length human MSLN (MSNW10) and H838 cells that express MSLN on the cell surface. Binders were further screened for binding to cells in the presence of recombinant soluble MSLN lacking the C-terminal 7 AAs (MSNW11). This form of recombinant MSLN represented the product of cleavage at the closest cleavage site to the C-terminus known at the time, therefore, it theoretically represented the longest form of shed MSLN. The final concentration of shed MSLN in the assays was 100 nM.

[3] = biological target: T1, MSNW10, recombinant full length human …; assay: SPR, recombinant full-length human MSLN
[4] = biological target: T3, CD3 epsilon on human T-cells (human, UniProt P07766 23-207); assay: cell-based or functional assay
[5] = biological target: T3, CD3 epsilon on human T-cells; assay: T-cell binding assay, FIG. 15
[6] = biological target: T3, CD3 epsilon on human T-cells; assay: T cell binding
[7] = biological target: T4, human MSLN on the cell surface (human, UniProt Q13421 296-598); assay: high content imaging, surface staining of OVCAR8 cells
T4 construct: on cells stands the processed GPI-anchored 40 kDa MSLN; also called membrane MSLN; MSLN on H838, OVCAR-8 (OVCAR8), OVCAR-8 K1/C8, SK-OV-3 cells
Experimental: OVCAR8 cells were cultured in RPMI 1640 medium supplemented with 10% FCS, 1% L-glutamine and 1% Gentamycin and seeded in Greiner CELLSTAR plate one day before experiment. 24 h after seeding, antibody mixture was prepared by diluting MSLN and control antibodies in Table 21 in full media containing CellMask™ Deep Red Plasma Membrane Stain (ThermoFisher, C10046) in 12 concentrations each with 3 folds dilution starting from 20 μg/ml and 20 μl of which were added directly to the cells in 20 μl. Antibodies were allowed for binding to the cell surface for 2h inside the incubator (37°) C. and the surface bound antibodies were fixed for 15 min at RT by directly adding 30 ul of 10% Formaldehyde (04018-1, Polysciences). Afterwards residual Formaldehyde was removed by washing the cells twice with PBS and the primary antibodies were stained with secondary antibodies (Alexa Fluor 488 goat anti-human IgG, Invitrogen, A11013) complemented with Hoechst 33342 (H3570, ThermoFisher) and HCS CellMask™ Deep Red Stain (ThermoFisher, H32721) in PBS for 1h at RT. After removing unbound antibodies and other dyes by washing the cells 3 times with PBS cells were imaged on the CellVoyager 7000 (Yokogawa, Tokyo, Japan) using a 40×/0.95 objective. Of each well, 9 fields were imaged. Image analysis was performed with Acapella (PerkinElmer, Waltham, MA, USA) and the results stored in Phaedra (OpenAnalytics, Antwerp, Belgium). Data analysis was done in R (www.r-project.org).
The data was then fitted using the four-parameter logistic using least-squares regression, keeping the lower boundary fixed at 0.

[8] = biological target: T5, 8 AA stub (a.a. 296-303 of SEQ ID NO: 247) (human); assay: competition of OVCAR8 cell binding by the peptide
T5 construct: also called 8 AA Peptide; peptide of the last 8 C-terminal amino acids
T5 peptide: LSMQEALS

[9] = biological target: T6, 12 AA stub region peptide LVLDLSMQEALS (human); assay: SPR, mAb captured, peptide injected
T6 construct: free N-terminus; also called 12 AA Peptide
T6 peptide: LVLDLSMQEALS
Experimental: (§1) The binding was assessed by SPR. Briefly, GAH-Fc was used to capture mAbs on C4 sensor chip followed by antigen injection starting at 30 nM (14 amino acid stub), 100 nM (10-13 amino acid stubs), or 1000 nM (7-9 amino acid stubs) progressing in a 3-fold dilution series in single cycle kinetics mode. HBSP+0.01% BSA was used in the assay.

[10] = biological target: T7, 11 AA stub (a.a. 293-303 of SEQ ID NO: 247) (human); assay: SPR, mAb captured, peptide injected
T7 peptide: VLDLSMQEALS
Experimental: as §1

[11] = biological target: T8, 9 AA stub (a.a. 295-303 of SEQ ID NO: 247) (human); assay: SPR, mAb captured, peptide injected
T8 peptide: DLSMQEALS
Experimental: as §1

[12] = biological target: T9, 7 AA stub (a.a. 297-303 of SEQ ID NO: 247) (human); assay: SPR, mAb captured, peptide injected
T9 peptide: SMQEALS
Experimental: as §1

[13] = biological target: T10, 10 AA stub (a.a. 294-303 of SEQ ID NO: 247) (human); assay: SPR, mAb captured, peptide injected
T10 peptide: LDLSMQEALS
Experimental: as §1

[14] = biological target: T11, 13 AA stub (a.a. 291-303 of SEQ ID NO: 247) (human); assay: SPR, mAb captured, peptide injected
T11 peptide: YLVLDLSMQEALS
Experimental: as §1

[15] = biological target: T12, 14 AA stub (a.a. 290-303 of SEQ ID NO: 247) (human); assay: SPR, mAb captured, peptide injected
T12 peptide: GYLVLDLSMQEALS
Experimental: as §1

[16] = biological target: T6, 12 AA stub region peptide LVLDLSMQEALS; assay: SPR

T3 sequence (P07766 23-207 limits assumed): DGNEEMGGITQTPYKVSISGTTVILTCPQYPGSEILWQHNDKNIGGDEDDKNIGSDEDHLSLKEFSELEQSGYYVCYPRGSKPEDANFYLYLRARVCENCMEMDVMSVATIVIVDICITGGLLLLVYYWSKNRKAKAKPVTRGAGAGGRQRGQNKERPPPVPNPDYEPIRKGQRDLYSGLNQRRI
T4 sequence (Q13421 other isoform, or with tags, fused parts or gaps limits assumed): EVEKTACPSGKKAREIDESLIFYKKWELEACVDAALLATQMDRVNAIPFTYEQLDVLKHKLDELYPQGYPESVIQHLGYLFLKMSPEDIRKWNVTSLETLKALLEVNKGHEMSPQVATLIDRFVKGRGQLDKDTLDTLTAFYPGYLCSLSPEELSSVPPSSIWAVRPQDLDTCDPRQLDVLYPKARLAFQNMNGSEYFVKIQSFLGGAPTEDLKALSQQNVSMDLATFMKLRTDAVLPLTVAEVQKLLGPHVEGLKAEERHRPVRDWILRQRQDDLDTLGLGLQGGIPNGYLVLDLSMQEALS
T2 sequence (Q13421 other isoform, or with tags, fused parts or gaps limits assumed): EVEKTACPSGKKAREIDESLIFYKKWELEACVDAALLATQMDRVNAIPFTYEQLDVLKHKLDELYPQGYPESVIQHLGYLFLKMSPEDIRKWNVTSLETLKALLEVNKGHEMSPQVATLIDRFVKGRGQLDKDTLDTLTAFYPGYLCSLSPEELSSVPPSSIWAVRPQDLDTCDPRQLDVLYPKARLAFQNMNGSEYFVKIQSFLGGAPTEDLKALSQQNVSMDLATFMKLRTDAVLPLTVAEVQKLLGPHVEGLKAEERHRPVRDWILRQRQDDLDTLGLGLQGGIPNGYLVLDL

B1: MSLNB590 (antibody, V domains shown)
VH: QVQLQQSGPGLVKPSQTLSLTCAISGDSVSSTRAAWNWIRQSPSRGLEWLGRTYYRSKWYNDYTVSVKSRITINPDTSKNQFSLHLNSVTPEDSAVYFCARGNVGRVDFWGQGTLVTVSS
VL: EIVMTQSPLSLPVTPGEPASISCRSSQSLLHSDGYNYLDWYLQKPGQSPQLLIYLGSNRASGVPDRFSGSGSDTDFTLKISRVEAEDVGVYYCMQGLRTPLTFGPGTKLEIK
notes: mAb; also called MSNB590
- Kd [1]: 1.2 nM
- binding result [2]: no binding (tested: 100 nM)

B2: MSNB133 (antibody, V domains shown)
VH: QVQLQQSGPGLVKPSQTLSLTCAISGDSVSSNRVAWNWIRQSPSRGLEWLGRTYYRSKWYNDFALSVKSRININADTSKSQFSLQLNSVTPEDTAVYYCARGIVGALDYWGQGTTVTVSS
VL: DIVMTQSPLSLPVTPGEPASISCRSSQSLLFSNGYNSLDWYLQKPGQSPQLLIYLGSNRASGVPDRFSGSESGTDFTLKISRVEAEDVGVYYCMQALQTPFTFGPGTKLEIK
notes: mAb
- binding result [2]: no binding (tested: 100 nM)
- Kd [3]: 3.7 nM

B3: MNC3B199 (bispecific antibody, V domains shown, not shown: a dimerising Fc or GST; small tags and cut ends)
VH 1: QVQLVESGPGQVKPSQTLSLTCAISGDSVSSNSAAWNWIRQSPSRGLEWLGRTYYRSKWYNDYAVSVKSRITINPDTSKNQFSLQLNSVTPEDTAVYYCARRDYSSGGFDYWGQGTTVTVSS
VL 1: not shown
VH 2: QVQLVQSGAEVKKPGSSVKVSCKASGYTFTRSTMHWVKQAPGQGLEWMGYINPSSAYTNYNQKFQGRVTLTADKSTSTAYMELSSLRSEDTAVYYCASPQVHYDYAGFPYWGQGTLVTVSS
VL 2: EIVLTQSPATLSASPGERVTLSCSASSSVSYMNWYQQKPGQAPRRLIYDSSKLASGVPARFSGSGSGRDYTLTISSLEPEDFAVYYCQQWSRNPPTFGGGTKVEIK
- AC90 [nM], cytotoxicity, 1:1 E:T, 72 hours [4]: 7.32 nM
- Max. Activity, cytotoxicity, 1:1 E:T, 72 hours [4]: 85%
- qAC50 [nM], cytotoxicity, 1:1 E:T, 72 hours [4]: 1.19 nM

B4: CD3W245 HL formatted in the 2+1 format (bispecific antibody)
scFv: EVQLVESGGGLVKPGGSLRLSCAASGFTFSRYNMNWVRQAPGKGLEWVSSISTSSNYIYYADSVKGRFTFSRDNAKNSLDLQMSGLRAEDTAIYYCTRGWGPFDYWGQGTLVTVSSGGSEGKSSGSGSESKSTGGSDIQMTQSPSSLSASVGDRVTITCRARQSIGTAIHWYQQKPGKAPKLLIKYASESISGVPSRFSGSGSGTDFTLTISSLQPEDFATYYCQQSGSWPYTFGQGTKLEIK
VH: QVQLVESGPGQVKPSQTLSLTCAISGDSVSSNSAAWNWIRQSPSRGLEWLGRTYYRSKWYNDYAVSVKSRITINPDTSKNQFSLQLNSVTPEDTAVYYCARRDYSSGGFDYWGQGTTVTVSS
VL: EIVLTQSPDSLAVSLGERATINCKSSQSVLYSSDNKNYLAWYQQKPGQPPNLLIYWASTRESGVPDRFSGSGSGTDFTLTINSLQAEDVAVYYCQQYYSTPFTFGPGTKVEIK
notes: two MSLN targeting (MSNB457) Fabs and one CD3 scFv set between Fab and Fc of one heavy chain; also called CD3W245 HL 2+1
- EC50 [5]: 44 nM

B5: CD3B2030-N106A (scFv, V domains shown)
VH: QVQLVQSGAEVKKPGSSVKVSCKASGYTFTRSTMHWVKQAPGQGLEWIGYINPSSAYTNYNQKFQGRVTLTADKSTSTAYMELSSLRSEDTAVYYCASPQVHYDYAGFPYWGQGTLVTVSS
VL: EIVLTQSPATLSASPGERVTLSCSASSSVSYMNWYQQKPGQAPRRWIYDSSKLASGVPARFSGSGSGRDYTLTISSLEPEDFAVYYCQQWSRNPPTFGGGTKVEIK
- EC50 [6]: 50 to 100 nM

B6: CD3B2051-N106A (scFv, V domains shown)
VH: QVQLVQSGAEVKKPGSSVKVSCKASGYTFTRSTMHWVKQAPGQGLEWMGYINPSSAYTNYNQKFQGRVTLTADKSTSTAYMELSSLRSEDTAVYYCASPQVHYDYAGFPYWGQGTLVTVSS
VL: EIVLTQSPATLSASPGERVTLSCSASSSVSYMNWYQQKPGQAPRRLIYDSSKLASGVPARFSGSGSGRDYTLTISSLEPEDFAVYYCQQWSRNPPTFGGGTKVEIK
notes: CD3 targeting scFv
- EC50 [6]: 50 to 100 nM

B7: MSLNB570 (antibody, V domains shown)
VH: QVQLQQSGPGLVKPSQTLSLTCAISGDSVSSTSVAWNWIRQSPSGGLEWLGRTYYRSKWYNDYALSVKSRMTINPDTASNQFSLQLNSVTPEDTAVYYCSRGIVGALDYWGQGTLVTVSS
VL: DIVMTQTPLSLPVTPGGPASISCRSSQSLMYSNGYNHLDWYLQKPGQSPQFLIHLGSNRVSGVPDRFSGSGSGTDFTLKISRVEAEDVGVYYCMQALRTPYTFGQGTKVDIK
notes: mAb; also called MSNB570
- IC50 [7]: 0.0728 µg/mL
- Maximum Value (arbitrary units) [7]: 1.39e+07 arbitrary units
- binding result [8]: no binding
- binding result [2]: no binding (tested: 100 nM)
- Kd [3]: 3.6 nM
- Kd [9]: 7.97 nM
- binding result [10]: no binding (tested: 100 nM)
- binding result [11]: no binding (tested: 1000 nM)
- binding result [12]: no binding (tested: 1000 nM)
- binding result [13]: no binding (tested: 100 nM)
- Kd [14]: 4.37 nM
- Kd [15]: 3.67 nM

B8: MSNB459 (antibody, V domains shown)
VH: EVQLVQSGPGLVKPSQTLSLTCAISGDSVSSNSVAWNWIRQSPSRGLEWLGRTYYRSKWYNDYALSVKSRITINPDTSKNQFSLQLNSVTPEDTAVYYCARGVVGAVDYWGQGTLVTVSS
VL: DIVMTQSPLSLPVTPGEPASISCRSSQNLLYSNGYNSLDWYLQKPGQSPQLLIYLGSNRASGVPDRFSGSGSGTDFTLKISRVEAEDVGVYYCMQGLRTPLTFGGGTKVEIK
notes: mAb
- binding result [2]: no binding (tested: 100 nM)
- Kd [3]: 3.5 nM

B9: MSLNB571 (antibody, V domains shown)
VH: QVQLQQSGPGLVKPSQTLSLTCAISGDSVSSTSVAWNWIRQSPSGGLEWLGRIYYRSKWYNDYALSVKSRMTINPDTASNQFSLQLNSVTPEDTAVYYCSRGIVGALDYWGQGTLVTVSS
VL: DIVMTQTPLSLPVTPGGPASISCRSSQSLMYSNGYNHLDWYLQKPGQSPQFLIHLGSNRVSGVPDRFSGSGSGTDFTLKISRVEAEDVGVYYCMQALRTPYTFGQGTKVDIK
notes: mAb; also called MSNB571
- IC50 [7]: 0.0735 µg/mL
- Maximum Value (arbitrary units) [7]: 1.46e+07 arbitrary units
- binding result [16]: binds
- binding result [2]: no binding (tested: 100 nM)
- Kd [3]: 1.8 nM

B10: MSLNB592 (antibody, V domains shown)
VH: QVQLQQSGPGLVKPSQTLSLTCAISGDSVSSTSVAWNWIRQSPSGGLEWLGRTYYRSKWYNDYALSVKSRMTINPDTASNQFSLQLNSVTPEDTAVYYCSRGIVGALDYWGQGTLVTVSS
VL: DIVMTQSPLSLPVTPGEPASISCRSSQSLMYSNGYNHLDWYLQKPGQSPQFLIHLGSNRASGVPDRFSGSGSGTDFTLKISRVEAEDVGVYYCMQALRTPYTFGQGTKVEIK
notes: mAb; also called MSNB592
- Kd [1]: 0.9 nM
- binding result [2]: no binding (tested: 100 nM)

From patent US20240166737A1 (Janssen / Centocor, published 2024)
